Measurements published in patent US20100035825.

Experiments:
Ac-KE^217VD-CHO = target: T1, Ac-KE^217VD-CHO
T1 chain: KEVD

Ac-KKPD^105-CHO = target: T2, Ac-KKPD^105-CHO
T2 chain: KKPD

B1: purified recombinant procaspase 8 (human, Alexis Biochemicals) (protein)
chain: SESQTLDKVYQMKSKPRGYCLIINNHNFAKAREKVPKLHSIRDRNGTHLDAGALTTTFEELHFEIKPHDDCTVEQIYEILKIYQLMDHSNMDCFICCILSHGDKGIIYGTDGQEAPIYELTSQFTGLKCPSLAGKPKVFFIQACQGDNYQKGIPVETDSEEQPYLEMDLSSPQTRYIPDEADFLLGMATVNNCVSYRNPAEGTWYIQSLCQSLRERCPRGDDILTILTEVNYEVSNKDDKKNMGKQMPQPTFTLRKKLVFPSD
in vitro self-activation of caspase 8 (colorimetric substrate, tetrapeptides at 200 µM) (Ac-KE^217VD-CHO): inhibited | in vitro self-activation of caspase 8 (colorimetric substrate, tetrapeptides at 200 µM) (Ac-KKPD^105-CHO): inhibited
